Biological target: Muc16 CAR 53B6 with a V5 tag attached to its N-terminus via matriptase cleavable linker TPS6 45aa
Sequence (chain, as listed by the source): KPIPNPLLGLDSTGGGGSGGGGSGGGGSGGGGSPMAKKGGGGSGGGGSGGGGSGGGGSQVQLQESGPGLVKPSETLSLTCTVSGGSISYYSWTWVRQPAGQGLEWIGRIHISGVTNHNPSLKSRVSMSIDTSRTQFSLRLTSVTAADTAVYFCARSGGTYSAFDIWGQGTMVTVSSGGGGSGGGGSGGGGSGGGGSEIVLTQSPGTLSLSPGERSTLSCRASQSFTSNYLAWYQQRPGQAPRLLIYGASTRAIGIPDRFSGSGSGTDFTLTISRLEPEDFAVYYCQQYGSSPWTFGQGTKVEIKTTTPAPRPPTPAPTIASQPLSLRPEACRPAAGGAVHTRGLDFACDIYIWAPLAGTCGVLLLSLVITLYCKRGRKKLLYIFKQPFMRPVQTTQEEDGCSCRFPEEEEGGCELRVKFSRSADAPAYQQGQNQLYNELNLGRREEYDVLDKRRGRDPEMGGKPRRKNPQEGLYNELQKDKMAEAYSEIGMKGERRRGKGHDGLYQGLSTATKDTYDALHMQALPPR

B1: endogenous matriptase on OVCAR3, MDA-MB-231 and NCI-H292 cells (protein)
chain: MGSDRARKGGGGPKDFGAGLKYNSRHEKVNGLEEGVEFLPVNNVKKVEKHGPGRWVVLAAVLIGLLLVLLGIGFLVWHLQYRDVRVQKVFNGYMRITNENFVDAYENSNSTEFVSLASKVKDALKLLYSGVPFLGPYHKESAVTAFSEGSVIAYYWSEFSIPQHLVEEAERVMAEERVVMLPPRARSLKSFVVTSVVAFPTDSKTVQRTQDNSCSFGLHARGVELMRFTTPGFPDSPYPAHARCQWALRGDADSVLSLTFRSFDLASCDERGSDLVTVYNTLSPMEPHALVQLCGTYPPSYNLTFHSSQNVLLITLITNTERRHPGFEATFFQLPRMSSCGGRLRKAQGTFNSPYYPGHYPPNIDCTWNIEVPNNQHVKVRFKFFYLLEPGVPAGTCPKDYVEINGEKYCGERSQFVVTSNSNKITVRFHSDQSYTDTGFLAEYLSYDSSDPCPGQFTCRTGRCIRKELRCDGWADCTDHSDELNCSCDAGHQFTCKNKFCKPLFWVCDSVNDCGDNSDEQGCSCPAQTFRCSNGKCLSKSQQCNGKDDCGDGSDEASCPKVNVVTCTKHTYRCLNGLCLSKGNPECDGKEDCSDGSDEKDCDCGLRSFTRQARVVGGTDADEGEWPWQVSLHALGQGHICGASLISPNWLVSAAHCYIDDRGFRYSDPTQWTAFLGLHDQSQRSAPGVQERRLKRIISHPFFNDFTFDYDIALLELEKPAEYSSMVRPICLPDASHVFPAGKAIWVTGWGHTQYGGTGALILQKGEIRVINQTTCENLLPQQITPRMMCVGFLSGGVDSCQGDSGGPLSSVEADGRIFQAGVVSWGDGCAQRNKPGVYTRLPLFRDWIKENTGV
- removal of V5 tag (linker cleavage, flow cytometry): the endogenous matriptase showed limited activity

Source: patent US20220227832
